± gives the standard deviation.
Test: protein stability index of a GFP-peptide fusion (GPS, HEK-293T) (PSI 1-6); higher = more stable
[1] = treatment: DMSO, c terminus: a fixed tail appended
[2] = treatment: MLN4924 1 uM, 8 h, c terminus: a fixed tail appended
[3] = treatment: DMSO, c terminus: native
[4] = treatment: MLN4924 1 uM, 8 h, c terminus: native
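Further: 24-mer peptide tiles fused after GFP, lentivirally expressed, FACS-sorted into six equal bins by GFP/DsRed ratio, decoded by Illumina sequencing, PSI is the read-weighted mean bin number.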

Sequence	protein stability index [1]	protein stability index [2]	protein stability index [3]	protein stability index [4]
TMNRRVCVLMLLAAWIGGFLHSLV [OR4A15]	2.53 ± 0.36	2.18 ± 0.24		
VGPAEPTLVNFHLKRSIPQVSPVR [CPN1]	3.44 ± 0.17	3.4 ± 0.32		
PLVYKAIQQGINAVNQEAMNNAQR [ACSBG2]	3.331 ± 0.031	3.45 ± 0.23		
NFDNPWNFQNIPKETELPFPKQIL [MIA2]	2.74 ± 0.27	2.9 ± 0.4		
SVRILGSLVAILLVFLITAILVKV [SLC29A1]	2.9 ± 0.44	2.85 ± 0.66		
IQGNIEYSCPATNECEITKRRRKS [ESRRG]	4.85 ± 0.15	5.13 ± 0.25		
PILKRLERPQDRDTPVQNKRRRSV [CDC25B]	5.03 ± 0.49	5.11 ± 0.16		
AFADRDQSERQRHESQQLATETQA [TEKT4]	5.11 ± 0.16	5.36 ± 0.31		
GLQRNLLVENIIDIYKQECSSRPL [TRIM63]	2.71 ± 0.31	2.87 ± 0.19		
RKPPVFDENEDVNFDHFEILRAIG [STK32A]	2.76 ± 0.36	2.86 ± 0.31		
EGEADHSGYAGELGFRAFSGSGNR [UFD1]	4.63 ± 0.25	4.69 ± 0.54		
QLYMEQFTKANFWYQPSFHGVDLS [CARM1]	2.42 ± 0.71	2.48 ± 0.31		
QLKACTNFDDILNVCDDYDVTCNE [KCNG1]	4.42 ± 0.16	4.63 ± 0.085		
DIHGLRKVIDDTNITRLQLETEIE [KRT18]	4.28 ± 0.28	4.16 ± 0.46		
AVNQKIDRESLCGASTSCLLPVQV [PCDHGC5]	2.99 ± 0.13	3.26 ± 0.65		
LKNIELFDKLALRFHGRLLFLKDV [KCTD13]	2.66 ± 0.77	2.11 ± 0.15		
AEPAMPGRLYVHPDSPATGAHWMR [TBX5]	3.5 ± 0.36	3.44 ± 0.21		
QQHSDKTSLQGLTGTPLVAGSPIR [ISL2]	4.2 ± 0.21	4.39 ± 0.13		
MPLEQRSQHCKPEEGLEARGEALG [MAGEA3]	5.34 ± 0.34	5.39 ± 0.14		
APLSSRKHVLYVEHRHLNPDTELK [TCF25]	3.72 ± 0.35	3.87 ± 0.51		
EFLPQGPVAMRVAKLAINQGMEVD [AUH]		3.82 ± 0.18		
QETVLVEERRVVHASGDASYSAGD [EPB41L3]	5.28 ± 0.2	5.38 ± 0.24		
AIPITELTKSQVQDKPYKCTDCGK [ZNF8]	4.25 ± 0.2	4.3 ± 0.21		

Sequence	protein stability index [1]	protein stability index [2]	protein stability index [3]	protein stability index [4]
FRRSLHDPDGLVATYISEVHEHDG [APMAP]	4.02 ± 0.28	4.01 ± 0.3		
LLPTKSLVALKCTCCYFKFIIEYY [FBXO34]	2.8 ± 0.59	2.83 ± 0.88		
VANRHGHTCLMISCYKGHREIARY [FEM1A]	2.54 ± 0.5	2.41 ± 0.67		
ALSSFREESRFCDAHLVLDGEEIP [GAN]	4.51 ± 0.18	4.59 ± 0.14		
SGIPEVKCYLNGVKVPGIVRLRTL [CLCN6]	2.4 ± 0.53	1.91 ± 0.35		
PYLRFGCLSCRLFYFKLTDLYKKV [CRY1]	2.55 ± 0.45	2.32 ± 0.38		
EEGDEDDWASNKVMFKIGDLGHVT [WEE1]	4.1 ± 0.23	4.39 ± 0.2		
IPANVSNCNWFCEGSFNGSEKETM [KRT33B]	4.19 ± 0.15	4.07 ± 0.3		
PLSSDIQVITQTGVPGQPLNFKAE [PTPRD]	4.66 ± 0.17	4.51 ± 0.26		
KEMFTVGCCVFAFLVGLLFVQRSG [SLC6A17]	2.38 ± 0.66	3.13 ± 0.61		
EMFPAAQQLYRHGKAYRFLFGFSA [JAGN1]	2.5 ± 0.56	2.31 ± 0.29		
VSVRVQPRGRAHLLPNPYQQDFLG [C22orf15]	2.2 ± 0.18	2.13 ± 0.35		
VSRRTSEACMTHLHYKWIPVEDSH [DUSP5]	3.04 ± 0.34	3.08 ± 0.21		
GSCSTEVEKETQEKMTILQTYFRQ [ATP6V1G1]	2.5 ± 0.25	2.62 ± 0.3		
SRFSSSTEQSSASRLMRRHKRRRR [DVL3]	5.17 ± 0.084	5.257 ± 0.022		
DIDKKHLVLLRDGRTLIGFLRSID [LSM1]	2.3 ± 0.31	2.25 ± 0.18		
AEHNLVLFRKDVDDATLSRLELER [PRPH]	4.45 ± 0.19	4.51 ± 0.16		
KGDKCKFSHDLTLERKCEKRSVYI [ZC3H15]	2.74 ± 0.22	2.63 ± 0.067		
KSLSIQYLELDRLVWRNSIRSSFI [FBXO39]	2.51 ± 0.64	2.28 ± 0.17		
QAIDHGCEHICVNSDDSYTCECLE [MATN2]	5.43 ± 0.098	5.14 ± 0.28		
MVTQILGAMESQVGGGPAGPALPN [ELAVL3]	2.69 ± 0.098	3.01 ± 0.53		
LSLESSPDAPDHTSETSHSPLYAD [PLEKHN1]	5.47 ± 0.16	5.38 ± 0.24		
QALLDVKNIAHQNKFGEDMPHPH [HDAC6]			4.99 ± 0.18	5.08 ± 0.12

Sequence	protein stability index [1]	protein stability index [2]	protein stability index [3]	protein stability index [4]
FLEEAHEWNQKRARKAMRNGISPI [N4BP2L1]	3.1 ± 0.29	3.18 ± 0.34		
REQKEKSPPDQPAVPHPPPSTPIK [ADD1]	5.39 ± 0.12	5.53 ± 0.18		
TQDSARVNPQDGTNTLTRIAENGV [EHMT1]	5.11 ± 0.16	5.1 ± 0.19		
MTSTGQDSTTTRQRRSRQNPQSPP [HDAC6]	5.46 ± 0.14	5.4 ± 0.12		
KKRRAQQAPPQDSSNKKEKKVLNH [DYRK1B]	5.2 ± 0.32	5.3 ± 0.13		
RVQQHIESKLLGSNSSRMYFTQTL [MLH1]	2.37 ± 0.23	2.29 ± 0.38		
AFDYIKQRRSMVSPNFGFMGQLLQ [DUSP5]	2.14 ± 0.25	2.27 ± 0.39		
LEGLNLSILKAMGKTKKDYQEASN [NECAB1]	3.78 ± 0.14	3.91 ± 0.22		
KKVYLTGFALDILFAIANGFSPSY [SLC22A15]	2.68 ± 0.28	3.42 ± 0.22		
FVEATRKWKVGIPSDPLVSIGALI [ALDH8A1]	2.34 ± 1.1	2.16 ± 0.57		
NYLFMGDYVDRGYYSVETVTLLVA [PPP2CA]	2.71 ± 0.6	2.82 ± 0.56		
VKEAPAPTPTSLEVSSPPDTTEEV [PDZK1]	5.57 ± 0.25	5.49 ± 0.3		
SAWSNIQEAPLQDDSCLNNDIPHS [FAN1]	4.98 ± 0.2	5.07 ± 0.067		
EFFSANAISDQLLGAGSDLKDFTL [ADAMTSL2]	2.97 ± 0.26	3.22 ± 0.42		
SLVAILLVFLITAILVKVQLDALP [SLC29A1]	2.35 ± 0.6	2.54 ± 0.58		
RGTHAVVGVATADAPLHSVGYTTL [SPSB1]	2.73 ± 0.26	2.88 ± 0.14		
QDDISSSYTTTTTITAPPSRVLQN [SCD]	4.71 ± 0.3	4.89 ± 0.3		
SCKENCTCSSCLLRAPTISDLLND [EDARADD]	4.85 ± 0.41	4.83 ± 0.33		
GKWPQVLFFPEGTCSNKKALLKFK [LPCAT4]	2.52 ± 0.31	2.57 ± 0.45		
LTDAVAPGNKGRGQRGNTESKTDG [TCF25]	5.5 ± 0.27	5.48 ± 0.45		
LYAKMIQKLADLRSLNEEHSKQYR [VDR]	2.15 ± 0.41	2.19 ± 0.22		
ELNDRFANFIEKVRFLEQQNAALR [PRPH]	2.39 ± 0.21	2.71 ± 0.33		
PPPLDQYVKFDAVSGDYYPIIYFN [CLPTM1]	2.32 ± 0.14	2.37 ± 0.44		

Sequence	protein stability index [1]	protein stability index [2]	protein stability index [3]	protein stability index [4]
KTQSELASESEHIPKPQSTGWFGG [MIA2]	3.97 ± 0.12	4.43 ± 0.096		
ETEEMLGKKQEYLENRIQREIALA [CHMP4C]	4.44 ± 0.14	4.58 ± 0.29		
YSCPATNECEITKRRRKSCQACRF [ESRRG]	3.59 ± 0.51	4.15 ± 0.29		
RLLGSVQQDLERSLQDASRGDPAH [PBXIP1]	4.7 ± 0.2	4.56 ± 0.46		
DSMTSQAKPEALSSPKFREEAAFP [ELOA2]	4.9 ± 0.24	4.89 ± 0.13		
PLDDALLSFAHANCTLIISYQKPK [DPCD]	2.17 ± 0.2	2.22 ± 0.21		
RSLNVASGSGKSGGYGFGRGRASG [KRT71]	4.35 ± 0.38	4.49 ± 0.27		
DMKVNPIQGLASKWDYEKNEWKK [COX4I1]			4.45 ± 0.27	4.72 ± 0.24
ASGSVLRLVDAVLGAEIRNGMAII [HDAC6]	2.91 ± 0.56	2.55 ± 0.58		
TAFLLNIQLFEELQELLTHDTKDQ [HMOX1]	2.32 ± 0.28	2.49 ± 0.44		
AILRVIRLVRVFRIFKLSRHSKGL [KCNA1]	2.28 ± 0.36	2.46 ± 0.24		
EELEAKRLQCPFEQELLRRQQRLN [FAM107A]	4.59 ± 0.15	4.63 ± 0.21		
ALHLAARNGHLATVKLLVEEKADV [RIPK4]	2.85 ± 0.17	3.06 ± 0.3		
PDPGPSPEASHLRFRRFRFQEAAG [ZNF263]	3.16 ± 0.13	3.23 ± 0.31		
FSQEIGLASLGASEEAVQKLATCY [TPH1]	3.12 ± 0.18	3.34 ± 0.3		
ESDYTYSSSYEQFNGELPNGRHKI [SRPK2]	4.04 ± 0.41	3.97 ± 0.49		
HPNSRKSSAGGAKAGQPESRALAL [ZNF8]	4.67 ± 0.36	4.77 ± 0.16		
IHDLDLTLLNPRMIVDVTPYMNPS [CLCN6]	2.29 ± 0.19	2.26 ± 0.25		
ECPTCGHSYNVTQRRPRVLSCLHS [RNF208]	3.22 ± 0.17	3.45 ± 0.49		
EINSHSLFSKWFSESGKLVTKMFQ [TRIP13]	2.58 ± 0.21	2.48 ± 0.42		

Reference: the supplement of paper PMC10567573
